We go through 41 sequences from the nanobody polyreactivity screen of Harvey et al. (2022).

A short description of the data set: yeast display, Sf9 membrane polyspecificity reagent, FACS + sequencing; frameworks hold sequencing errors. A digest of the protocol: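 Galactose-induced (36–48 hours) yeast carrying a synthetic nanobody display library were exposed to 10% biotinylated, detergent-solubilized Sf9 membrane reagent at 4 °C for 1 hour. FACS followed streptavidin microbead enrichment, using low and high (top ~1%) gates for expression (anti-HA) and reagent binding (streptavidin). Colony PCR, MiSeq 2 × 250 sequencing and CDR-length filtering followed. Labels for polyreactivity reflect the gate of origin.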
For “QVQLVESGVGLVQAGGSLRLSCAASGSTFKYYGMGWYRQAPGKERELVASISSSGTRTYYADSVKGRFTISSDNAKNTVYLQMNSLKPEDTAVYYCAADSYATYFLYDSWGQGTQVSVSS”, the “polyreactivity (PSR sort gate)” value is reported as “low polyreactivity”.
With “QVQLVESGVGLVQAGGSLRLSCAASGSTFNYYAMGWYRQAPGKERELVAAISSRSSRTFYADSVKGRFTISRDNAKNTVYLQMHSVKPEDTAVYYCAVKKSAPDGDYWGQGTQVTVSS”, the “polyreactivity (PSR sort gate)” value is recorded as “high polyreactivity”.
The entry for “QVQLVESGVGLVQAGGSLRLSCAASGSTFRSNALGWYRQAPGKEREVVAGISSGGGTYYADSVKGRFTISRDNAKNTVYLQMNSLKPEDTAVYYCAKVVYFGWSVQYYYWGQGTQVTVSS” is “low polyreactivity”.
The entry for “QVQLVESGVGLVQAGGSLRLSCAASGSTLFVYAMGRYRQAPGKERELVAAISRGGSTYYADSVKGRFTISRDNAKNTVYLQMNSLKPEDTAVYYCAAVGGYPRYGYWGQGTQVTVSS” is “high polyreactivity”; for “QVQLVESGVGLVQAGGSLRLSCAASGSTLFVYTKGWSRQAPGKERELVAAITSSGGSTYYADSVKGRFTISRDKAKNTVYLQMNSLKAQDTAVYYCAAKELGSPYDYWGQGTQVTVSS” it is “high polyreactivity”; for “QVQLVESGVGLVQAGGSLRLSCAASGTTIVSYAMGWYRQAPGKEMEFVATISISGTSTYYADSVKGRFTISRDNAKNTVYLQMNSLKPEDTAVYYCAARLRPRGATQFYRYDYWGQGTQVTVSS” it is “high polyreactivity”.
The entry for “QVQLVESGVGLVQAGGSLRLSCAASGYTIDWYTMGWYRQAPGKERELVAAISASGVRTYYADSVKGRFTISRDNAKNTVYLQMNSLKPEDTGVYYCNRVYSTSRITQYEFDYWGQGTQVTLSS” is “low polyreactivity”; for “QVQLVESGVGLVQAGGSLRLSCAASGYTLDNYAMGWYRQAPGKERELVAGITFSGGSTFYADSVKGRFTISRDNAKNTVYLQMNSLKPEDTAVYYCAADAEFQADHKYGYWGQGTQVTVSS” it is “low polyreactivity”.
Take “QVQLVESGVGLVQAGGSLRLSCAPSGRIFGTYAMVWYRQAPGKERELVASITDRGDSTYADSVKGRFTISRDNAKNTVYLQMNSLKPEDTAVYYCAADGWWHNFYPGTGLDYWGQGTQVTVSS”: the “polyreactivity (PSR sort gate)” value is recorded as “low polyreactivity”.
In the case of “QVQLVESGVGLVQAGGSLSITCAASGRTFAGNSMGSYRQAPGKERELVAAISQGGGSTYYADSVKGRFTISRDNAKNTVYLQMNSRKAEDTAVYYCAAEIPRRWASFATQWYDYWGLGTQVTVSS”, the “polyreactivity (PSR sort gate)” value was “low polyreactivity”.
“QVQLVESGVGLVQAGGSVRLSCAASGFTFGYYAMGWYRQAPGKERELVASISSVDNTYYADSVKGRFTISRDNAKNTVYLQMNSLKPEDTAVYYCAARYRDYFVRGGYWGQGTQVTVSS”: the “polyreactivity (PSR sort gate)” value is “high polyreactivity”.
“QVQLVESGVGLVQAGGSVRLSCAASGSIFSINAMGWYRQAPGKERELVAAISASGGSTYYADSVKGRFTISRDNAKNTVYLQMNSLKPEDTAVYYCAVYTHDRFSRYDQGDYWGQATQVTVSS”: the “polyreactivity (PSR sort gate)” value was “low polyreactivity”.
The entry for “QVQLVESGVGLVQAGGTLRISCAASGSTLPGYAMGWYRPAPGKERELVAAITSRGGTTYYADSVKGRFTISRDNAKNTVYLQMNSLKPEDTAVYYCAAEVYYRSRVYPYYYSYDYWGQGTQVTVSS” is “high polyreactivity”.
Turning to “QVQLVESGVGLVQAGGTLRLSCAASGIIISRYTMGWYRQAPGKERELVAAITSSGITYYADSVKGRFTISRDNAKNTVYLQLNSLKPEDTAVYYCARETYGDYVHYDYWGLGTQVTVSS”, the “polyreactivity (PSR sort gate)” value is recorded as “low polyreactivity”.
Consider “QVQLVESGVGLVQAGRRLRLSCAASGFIFAWNGMGWYRKAPGKERELVAAISWSGGSTYYAVSVKGRFTISRDNEKNTVYLLMNTLKPEETAVYYCYRSWGSRPGSRLEYWGQGTQVTVSS”, for which the “polyreactivity (PSR sort gate)” value is on record as “high polyreactivity”.
For the sequence “QVQLVESGVGLVQAGRSLRLSCAASGRTFVQYAMGWYRQAPGKERELVARISRRGGSTYYADSVKGRFTISRDKAKNSVYLQMNSLKPEDTAVYYFAADAYPYWYDYWGQGTQVTVSS”, the “polyreactivity (PSR sort gate)” value is given as “high polyreactivity”.
With “QVQLVESGVGLVQAGVILRLSCAASGRTFRRNAMGWYRHAPGKERELVAAISWRGGSTYYADSVKGRFTISRDNAKNTVYLQLNSMKPEDTAVYYFAAGFESYDYWGQGTQVTVSS”, the “polyreactivity (PSR sort gate)” value is “high polyreactivity”.
On to “QVQLVESGVRLLQAGGSLRLSCAASGITSDDNTMGWYRQAPGKERELVARIRRTGGGTYYADSVKGRFTISRDNAKNTVYLQINSLKPEDSAVYYCAAVPSWGYRFNRVPYLWVDYWGQGTQVTVSS”, for which the “polyreactivity (PSR sort gate)” value is given as “low polyreactivity”.
The entry for “QVQLVESGVRLVQAGGSLLLSCAASGFTFHKNDMGWYRQAPGKERELVATISKSGGSTYYADSVKGRFTISRDNAMNTVYLQMNSLKPEDTAVYYCARRYRDYGRYGYWGQGTQVTVSS” is “high polyreactivity”; for “QVQLVESGVRLVQAGGSLRLSCAASGSIFAKYTMGWYRPAPGKERELVAAITRSGTSTRYADSVKGRFTISRDNAKNTVYLQLNSLKPEDTAVYYCAASLYSWGQGTQVTVSS” it is “high polyreactivity”; for “QVQLVESGVVLVQAGGSLRLSCAASGRIFRYYVMGWYRQAPGKERELVAAITNDGGNTNYADSVKGRFTISRDNEKNTVYLQMNSLKPEDTAVYYCNADRTHDRNPYTYATFDYWGQGTQVTVSS” it is “low polyreactivity”.
The entry for “QVQLVESLGGLVQAGGRLRLSSAASGLIFPRNAMGWYRQAPGKERELVAVISRSGTTTYYADSVKGRFTISRDNAKKTVYFQMNSLIPEDTAVYYCASAPSHVYRARFYYWGQGTQVTVSS” is “high polyreactivity”; for “QVQLVESRGCLVQAGGSLRLSCSASGYIFVYYAMGWYRQAPGKEWELVAAISRGGSTYYADSVKGRFTISRDNAKNTVYLQMNSLKPEDTAVYYCNKVLPYGREYGYCGQGTQVTVSS” it is “high polyreactivity”.
The entry for “QVQLVESRGGIVQAGGSLRLSCAASGRIFGWYAMGWYRQAPGKERELVAAITSSVGRTYYADSVKGRFTISRDNAKNTVYLQMNSLKPEDTAVYYCAKDLYTYYYFEYDYWGQGTQVTVSS” is “low polyreactivity”.
For the sequence “QVQLVESRGGLVLAGGSLRLSCAASGSIFPSYAMGWYRQAPGKERELVASISYRGGSTYYADSVKGRFTISRDNAKNTVYLQMNSLKPEDTAVYYCAATKERYYGWSRLTGYYRGNYWGQGTQVTVSS”, the “polyreactivity (PSR sort gate)” value was “high polyreactivity”.
The entry for “QVQLVESRGGLVPAGGSLRLSCAASGSTVRDYTMGRYRQAPGKEREVGAAITRRSASTYYADSVKGRFTISRDNAKNTVYLQLNSLKPEDTAVYYCAVRTNGPFEYWGQGTQVTVSS” is “high polyreactivity”; for “QVQLVESRGGLVQAGGSLGLSCAASGSTFGYYAMGWYRQAPGKERELVAGISTGGSTYYAYSVKGRFTISRDNAKNTVYFQINSLKPDDTAVYYCAATRYNRWPIKFDYWGQGTQVTVSS” it is “high polyreactivity”; for “QVQLVESRGGLVQAGGSLRLSCAASGFIFTRYVMGWYRQAPGKERELVAGISTRGARTYYADSVKGRFTISRDNAKNTVYLQIHSLTPEDTAVYYCNKDWSRGWNYEYDYWGQGTQVTVSS” it is “high polyreactivity”.
The entry for “QVQLVESRGGLVQAGGSLRLSCAASGFILVIYAMGWYRQAPRKERELVAAITSDGSTNYADSVKGRFTISRDNAKNSVYLQMNSLKPEDTAVYYCAADAVNPLDYWGLGTQVTVSS” is “low polyreactivity”; for “QVQLVESRGGLVQAGGSLRLSCAASGFTFGNYAMGWYRQAPGKEREMVAAISWSGGSTYNADSVKGRFTISRDNAKKTVYLQMNSLKPEDTAVYYCNAIRGSLWESDYWGQGTQVTVSS” it is “high polyreactivity”.
The entry for “QVQLVESRGGLVQAGGSLRLSCAASGLIFLHNAMGWYRQAPGKERELVAAIRDGDSTNYADSVKGRFTISRDNAKNTVYLQMNSLKPEDTAVYYCAKDPTLVAYAPGRYDYWGQGTQVTVSS” is “low polyreactivity”.
With “QVQLVESRGGLVQAGGSLRLSCAASGLNFSYYAMGWYRQAPGKERELVAAIDWNSGSTYYADSVKGRFTISRDNAKNTVYLQMNSLKPEDTAVYYCAAYGSFWYARFGYWGQGTQVTVSS”, the “polyreactivity (PSR sort gate)” value is “low polyreactivity”.
For “QVQLVESRGGLVQAGGSLRLSCAASGRIFAYYAKGWYRPAPGKERELVAAIRGSGGSTYYAESVKGRFTISRDNAKNTVYLQMNSLKPEDTAVYYCAARTQPKKFYYWGQGTQVTVSS”, the “polyreactivity (PSR sort gate)” value is listed as “high polyreactivity”.
As to “QVQLVESRGGLVQAGGSLRLSCAASGRIFLRNAMVWYRQAPGKERELVASIDRSGGSTYYADSVKGRFTISRDNAKNTVYLQMNSLKPEDTAVYYCAAAYWYLYYYWGQGTQVTVAS”, the “polyreactivity (PSR sort gate)” value is given as “low polyreactivity”.
The entry for “QVQLVESRGGLVQAGGSLRLSCAASGRIFRYYAMGWYRQAPGKERELVAAITWRGGNTRYADSVKGRFTISRDNAKNTVYLPMNSLKTEDTAVYYCAARGQSAYSIWSYYYWGQGTQVTVSS” is “high polyreactivity”; for “QVQLVESRGGLVQAGGSLRLSCAASGRIFWVNAMGWYRQAPGKERELVAVISRGGSTTYADSVKGRFTISRDNAKNTVYLQMNSLKPEDTAVYYCAADAYRHAFLYYGYDYWGQGTQVTVSS” it is “low polyreactivity”; for “QVQLVESRGGLVQAGGSLRLSCAASGRIYNYYEMGWYRQAHGKESELVAAITWRGGTTYYADSVKGRFTISRDNAKNTVYLQMNSLKPEDTAVYYCATTPRSYRFPPPVGYGYWGQGTQVTVSS” it is “high polyreactivity”.
The entry for “QVQLVESRGGLVQAGGSLRLSCAASGRTLTAYAMGWYRQAPGKERELVDDISFGGGTTYYADSVKGRFTISSDNAKNTVYLQMNSLKPEDTAVYYCAAANYVDIWDFYWFDDYWGQGTQVTVSS” is “high polyreactivity”; for “QVQLVESRGGLVQAGGSLRLSCAASGRTVRRYAMGWYRQAAGKARELVASISRGSSTNYADSVKGRFTSSRDNAKNTGYLQMNSLKPEHTAVYYCAALGWSARYRYDYWGQGTQVTVSS” it is “high polyreactivity”.
For the sequence “QVQLVESRGGLVQAGGSLRLSCAASGSIFSYYPMGWYRQAPGKERELVAAISSRGGSTYYADSVKGRFTISRDNAKNTFYLQMNCLKPEDTAVYYCDDEWTSWFGVTYDYWGQGTQVTVSS”, the “polyreactivity (PSR sort gate)” value is recorded as “high polyreactivity”.
The entry for “QVQLVESRGGLVQAGGSLRLSCAASGSNFTLYAMGWYRQAPGKERELGATITISGGGTYYADSVKGRFTISRDNAKNTVYLQMNSLKPEDTAVYYCAVKSIVRRKGYTYYRYDYWGQGTQVTVSS” is “high polyreactivity”.
